Reference: patent publication US20070218064A1 (published 2007)

T1: recombinant human IL-23 (hrIL-23), produced at Centocor (human, UniProt P29460 23-328)
T1 sequence 1: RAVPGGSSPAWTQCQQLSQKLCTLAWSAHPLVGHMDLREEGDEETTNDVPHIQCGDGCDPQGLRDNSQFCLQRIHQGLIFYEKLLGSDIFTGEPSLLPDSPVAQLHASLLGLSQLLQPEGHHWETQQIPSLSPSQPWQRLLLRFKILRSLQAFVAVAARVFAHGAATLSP
T1 sequence 2: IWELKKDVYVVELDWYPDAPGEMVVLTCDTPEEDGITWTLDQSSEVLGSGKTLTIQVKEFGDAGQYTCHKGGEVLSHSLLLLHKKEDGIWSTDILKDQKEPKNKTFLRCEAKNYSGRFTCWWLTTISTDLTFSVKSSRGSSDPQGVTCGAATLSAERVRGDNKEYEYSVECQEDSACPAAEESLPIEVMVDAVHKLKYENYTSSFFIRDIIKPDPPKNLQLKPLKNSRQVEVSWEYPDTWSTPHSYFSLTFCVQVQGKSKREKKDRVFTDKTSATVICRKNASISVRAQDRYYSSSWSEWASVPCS


The binders below were run against T1, recombinant human IL-23 (hrIL-23), … (assay: cell-based or functional assay).

Binder	Inhibition of IL-17 production, IC50 [µg/mL]
mAb MOR05041 (antibody, IgG1, V domains shown) VH: QVELVQSGAEVKKPGESLKISCKGSGYSFSNYWIGWVRQMPGKGLEWMGIIPSTYSPSFQGQVTISADKSISTAYLQWSSLKASDTAMYYCARWYYKPFDVWGQGTLVTVSS VL: DIVLTQPPSVSGAPGQRVTISCTGSSSNIGSGYDVHWYQQLPGTAPKLLIYGNSKRPSGVPDRFSGSKSGTSASLAITGLQSEDEADYYCSSWTPSSVVFGGGTKLTVL	0.00301
mAb MOR05043 (antibody, IgG1, V domains shown) VH: QVELVQSGAEVKKPGESLKISCKGSGYSFSNYWIGWVRQMPGKGLEWMGIPSTYSPSFQGQVTISADKSISTAYLQWSSLKASDTAMYYCARWYYKPFDVWGQGTLVTVSS VL: DIVLTQPPSVSGAPGQRVTISCTGSSSNIGSGYDVHWYQQLPGTAPKLLIYGNSKRPSGVPDRFSGSKSGTSASLAITGLQSEDEADYYCSSWTPSSVVFGGGTKLTVL	0.0144
mAb MOR05045 (antibody, IgG1, V domains shown) VH: QVELVQSGAEVKKPGESLKISCKGSGYSFSNYWIGWVRQMPGKGLEWMGIIPSTYSPSFQGQVTISADKSISTAYLQWSSLKASDTAMYYCARWYYKPFDVWGQGTLVTVSS VL: DIVLTQPPSVSGAPGQRVTISCTGSSSNIGSGYDVHWYQQLPGTAPKLLIYGNSKRPSGVPDRFSGSKSGTSASLAITGLQSEDEADYYCSSWTPSSVVFGGGTKLTVL	0.0014
mAb MOR05059 (antibody, IgG1, V domains shown) VH: QVELVQSGAEVKKPGESLKISCKGSGYSFSNYWIGWVRQMPGKGLEWMGIIDPSNSYTNYSPSFQGQVTISADKSISTAYLQWSSLKASDTAMYYCARWYYKPFDVWGQGTLVTVSS VL: DIVLTQPPSVSGAPGQRVTISCTGSSSNIGSGYDVHWYQQLPGTAPKLLIYGNSKRPSGVPDRFSGSKSGTSASLAITGLQSEDEADYYCSWTSVVFGGGTKLTVL	0.0106
mAb MOR05040 (antibody, IgG1, V domains shown) VH: QVELVQSGAEVKKPGSSVKVSCKASGGTFSSNYISWVRQAPGQGLEWMGAYAQKFQGRVTITADESTSTAYMELSSLRSEDTAVYYCARSKKGMYGGWTYPLMMFDLWGQGTLVTVSS VL: not shown	0.00264
mAb MOR05047 (antibody, IgG1, V domains shown) VH: QVELVESGGGLVQPGGSLRLSCAASGFTFSSFGMSWVRQAPGKGLEWVSNIGTYASVKGRFTISRDNSKNTLYLQMNSLRAEDTAVYYCARYWGTPYLMQFDNWGQGTLVTVSS VL: DIALTQPASVSGSPGQSITISCTGTSSDVGGYNSVSWYQQHPGKAPKLMIYSVSSRPSGVSNRFSGSKSGNTASLTISGLQAEDEADYYCSSYDTNKPLVVFGGGTKLTVL	0.0234
mAb MOR05052 (antibody, IgG1, V domains shown) VH: QVELVESGGGLVQPGGSLRLSCAASGFTFSSFGMSWVRQAPGKGLEWVSITYASVKGRFTISRDNSKNTLYLQMNSLRAEDTAVYYCARYWGTPYLMQFDNWGQGTLVTVSS VL: DIALTQPASVSGSPGQSITISCTGTSSDVGGYNSVSWYQQHPGKAPKLMIYSVSSRPSGVSNRFSGSKSGNTASLTISGLQAEDEADYYCSSYDTNKPLVVFGGGTKLTVL	0.0178
mAb MOR05050 (antibody, IgG1, V domains shown) VH: not shown VL: DIALTQPASVSGSPGQSITISCTGTSSDVGGYNSVSWYQQHPGKAPKLMIYSVSSRPSGVSNRFSGSKSGNTASLTISGLQAEDEADYYCSSYDTNKPLVVFGGGTKLTVL	0.0277
mAb MOR05051 (antibody, IgG1, V domains shown) VH: QVELVESGGGLVQPGGSLRLSCAASGFTFSSFGMSWVRQAPGKGLEWVSITYASVKGRFTISRDNSKNTLYLQMNSLRAEDTAVYYCARYWGTPYLMQFDNWGQGTLVTVSS VL: DIALTQPASVSGSPGQSITISCTGTSSDVGGYNSVSWYQQHPGKAPKLMIYSVSSRPSGVSNRFSGSKSGNTASLTISGLQAEDEADYYCSSYDTNKPLVVFGGGTKLTVL	0.0663
mAb MOR05048 (antibody, IgG1, V domains shown) VH: not shown VL: DIALTQPASVSGSPGQSITISCTGTSSDVGGYNSVSWYQQHPGKAPKLMIYSVSSRPSGVSNRFSGSKSGNTASLTISGLQAEDEADYYCSSYDTNKPLVVFGGGTKLTVL	0.0162
mAb MOR05055 (antibody, IgG1, V domains shown) VH: QVELVESGGGLVQPGGSLRLSCAASGFTFSSFGMSWVRQAPGKGLEWVSNIGTYASVKGRFTISRDNSKNTLYLQMNSLRAEDTAVYYCARYWGTPYLMQFDNWGQGTLVTVSS VL: DIALTQPASVSGSPGQSITISCTGTSSDVGGYNSVSWYQQHPGKAPKLMIYSVSSRPSGVSNRFSGSKSGNTASLTISGLQAEDEADYYCSSYDTNKPLVVFGGGTKLTVL	0.0916
mAb MOR05030 (antibody, IgG1, V domains shown) VH: QVELVQSGAEVKKPGSSVKVSCKASGGTFSSNYISWVRQAPGQGLEWMGGIIPIFGHANYAQKFQGRVTITADESTSTAYMELSSLRSEDTAVYYCARSKKGMYGGWTYPLMMFDLWGQGTLVTVSS VL: DIVLTQSPATLSLSPGERATLSCRASQSVSSNYLAWYQQKPGQAPRLLIYYASRRATGVPARFSGSGSGTDFTLTISSLEPEDFAYYCQQPFTFGQGTKVEIK	0.0646
mAb MOR05038 (antibody, IgG1, V domains shown) VH: QVELVQSGAEVKKPGSSVKVSCKASGGTFSSNYISWVRQAPGQGLEWMGIGYAQKFQGRVTITADESTSTAYMELSSLRSEDTAVYYCARSKKGMYGGWTYPLMMFDLWGQGTLVTVSS VL: not shown	0.0282

Second part, the binder after the results:

Inhibition of IL-17 production, IC50 [µg/mL]	Binder
0.00127	mAb MOR05042 (antibody, IgG1, V domains shown) VH: QVELVQSGAEVKKPGESLKISCKGSGYSFSNYWIGWVRQMPGKGLEWMGIIPSTYSPSFQGQVTISADKSISTAYLQWSSLKASDTAMYYCARWYYKPFDVWGQGTLVTVSS VL: DIVLTQPPSVSGAPGQRVTISCTGSSSNIGSGYDVHWYQQLPGTAPKLLIYGNSKRPSGVPDRFSGSKSGTSASLAITGLQSEDEADYYCSSWTPSSVVFGGGTKLTVL
0.0428	mAb MOR05046 (antibody, IgG1, V domains shown) VH: QVELVQSGAEVKKPGESLKISCKGSGYSFSNYWIGWVRQMPGKGLEWMGIIDPSTYSPSFQGQVTISADKSISTAYLQWSSLKASDTAMYYCARWYYKPFDVWGQGTLVTVSS VL: DIVLTQPPSVSGAPGQRVTISCTGSSSNIGSGYDVHWYQQLPGTAPKLLIYGNSKRPSGVPDRFSGSKSGTSASLAITGLQSEDEADYYCSSWTPSSVVFGGGTKLTVL
0.0141	mAb MOR05044 (antibody, IgG1, V domains shown) VH: QVELVQSGAEVKKPGESLKISCKGSGYSFSNYWIGWVRQMPGKGLEWMGIIPSSTYSPSFQGQVTISADKSISTAYLQWSSLKASDTAMYYCARWYYKPFDVWGQGTLVTVSS VL: DIVLTQPPSVSGAPGQRVTISCTGSSSNIGSGYDVHWYQQLPGTAPKLLIYGNSKRPSGVPDRFSGSKSGTSASLAITGLQSEDEADYYCSSWTPSSVVFGGGTKLTVL
0.00285	mAb MOR05058 (antibody, IgG1, V domains shown) VH: QVELVQSGAEVKKPGESLKISCKGSGYSFSNYWIGWVRQMPGKGLEWMGIIDPSNSYTNYSPSFQGQVTISADKSISTAYLQWSSLKASDTAMYYCARWYYKPFDVWGQGTLVTVSS VL: DIVLTQPPSVSGAPGQRVTISCTGSSSNIGSGYDVHWYQQLPGTAPKLLIYGNSKRPSGVPDRFSGSKSGTSASLAITGLQSEDEADYYCSSWTPVFGGGTKLTVL
0.00323	mAb MOR05054 (antibody, IgG1, V domains shown) VH: QVELVESGGGLVQPGGSLRLSCAASGFTFSSFGMSWVRQAPGKGLEWVSITYASVKGRFTISRDNSKNTLYLQMNSLRAEDTAVYYCARYWGTPYLMQFDNWGQGTLVTVSS VL: DIALTQPASVSGSPGQSITISCTGTSSDVGGYNSVSWYQQHPGKAPKLMIYSVSSRPSGVSNRFSGSKSGNTASLTISGLQAEDEADYYCSSYDTNKPLVVFGGGTKLTVL
0.00493	mAb MOR05053 (antibody, IgG1, V domains shown) VH: QVELVESGGGLVQPGGSLRLSCAASGFTFSSFGMSWVRQAPGKGLEWVSNITYYASVKGRFTISRDNSKNTLYLQMNSLRAEDTAVYYCARYWGTPYLMQFDNWGQGTLVTVSS VL: DIALTQPASVSGSPGQSITISCTGTSSDVGGYNSVSWYQQHPGKAPKLMIYSVSSRPSGVSNRFSGSKSGNTASLTISGLQAEDEADYYCSSYDTNKPLVVFGGGTKLTVL
0.0162	mAb MOR05049 (antibody, IgG1, V domains shown) VH: QVELVESGGGLVQPGGSLRLSCAASGFTFSSFGMSWVRQAPGKGLEWVSITYASVKGRFTISRDNSKNTLYLQMNSLRAEDTAVYYCARYWGTPYLMQFDNWGQGTLVTVSS VL: DIALTQPASVSGSPGQSITISCTGTSSDVGGYNSVSWYQQHPGKAPKLMIYSVSSRPSGVSNRFSGSKSGNTASLTISGLQAEDEADYYCSSYDTNKPLVVFGGGTKLTVL
0.092	mAb MOR05056 (antibody, IgG1, V domains shown) VH: not shown VL: DIALTQPASVSGSPGQSITISCTGTSSDVGGYNSVSWYQQHPGKAPKLMIYSVSSRPSGVSNRFSGSKSGNTASLTISGLQAEDEADYYCSSYDTNKPLVVFGGGTKLTVL
0.0491	mAb MOR05029 (antibody, IgG1, V domains shown) VH: QVELVQSGAEVKKPGSSVKVSCKASGGTFSSNYISWVRQAPGQGLEWMGGIIPIFGHANYAQKFQGRVTITADESTSTAYMELSSLRSEDTAVYYCARSKKGMYGGWTYPLMMFDLWGQGTLVTVSS VL: DIVLTQSPATLSLSPGERATLSCRASQSVSSNYLAWYQQKPGQAPRLLIYYASRRATGVPARFSGSGSGTDFTLTISSLEPEDFAYYCQQTFGQGTKVEIK
